Literature values, collected in paper PMC12799613.

Key:
TRPC5 (Homo sapiens) = TRPC5 (Homo sapiens) (UniProt Q9UL62)
[1] = molecular target: GIRK2 (Kir3.2), fourth Gβγ binding (Mus musculus) (UniProt P48542)
[2] = molecular target: GIRK2 (Kir3.2), first Gβγ binding (Mus musculus) (UniProt P48542)
[3] = molecular target: TRPM3 peptide (Mus musculus) (UniProt J9SQF3)
Sequence of TRPM3 peptide (Mus musculus) (J9SQF3 whole entry): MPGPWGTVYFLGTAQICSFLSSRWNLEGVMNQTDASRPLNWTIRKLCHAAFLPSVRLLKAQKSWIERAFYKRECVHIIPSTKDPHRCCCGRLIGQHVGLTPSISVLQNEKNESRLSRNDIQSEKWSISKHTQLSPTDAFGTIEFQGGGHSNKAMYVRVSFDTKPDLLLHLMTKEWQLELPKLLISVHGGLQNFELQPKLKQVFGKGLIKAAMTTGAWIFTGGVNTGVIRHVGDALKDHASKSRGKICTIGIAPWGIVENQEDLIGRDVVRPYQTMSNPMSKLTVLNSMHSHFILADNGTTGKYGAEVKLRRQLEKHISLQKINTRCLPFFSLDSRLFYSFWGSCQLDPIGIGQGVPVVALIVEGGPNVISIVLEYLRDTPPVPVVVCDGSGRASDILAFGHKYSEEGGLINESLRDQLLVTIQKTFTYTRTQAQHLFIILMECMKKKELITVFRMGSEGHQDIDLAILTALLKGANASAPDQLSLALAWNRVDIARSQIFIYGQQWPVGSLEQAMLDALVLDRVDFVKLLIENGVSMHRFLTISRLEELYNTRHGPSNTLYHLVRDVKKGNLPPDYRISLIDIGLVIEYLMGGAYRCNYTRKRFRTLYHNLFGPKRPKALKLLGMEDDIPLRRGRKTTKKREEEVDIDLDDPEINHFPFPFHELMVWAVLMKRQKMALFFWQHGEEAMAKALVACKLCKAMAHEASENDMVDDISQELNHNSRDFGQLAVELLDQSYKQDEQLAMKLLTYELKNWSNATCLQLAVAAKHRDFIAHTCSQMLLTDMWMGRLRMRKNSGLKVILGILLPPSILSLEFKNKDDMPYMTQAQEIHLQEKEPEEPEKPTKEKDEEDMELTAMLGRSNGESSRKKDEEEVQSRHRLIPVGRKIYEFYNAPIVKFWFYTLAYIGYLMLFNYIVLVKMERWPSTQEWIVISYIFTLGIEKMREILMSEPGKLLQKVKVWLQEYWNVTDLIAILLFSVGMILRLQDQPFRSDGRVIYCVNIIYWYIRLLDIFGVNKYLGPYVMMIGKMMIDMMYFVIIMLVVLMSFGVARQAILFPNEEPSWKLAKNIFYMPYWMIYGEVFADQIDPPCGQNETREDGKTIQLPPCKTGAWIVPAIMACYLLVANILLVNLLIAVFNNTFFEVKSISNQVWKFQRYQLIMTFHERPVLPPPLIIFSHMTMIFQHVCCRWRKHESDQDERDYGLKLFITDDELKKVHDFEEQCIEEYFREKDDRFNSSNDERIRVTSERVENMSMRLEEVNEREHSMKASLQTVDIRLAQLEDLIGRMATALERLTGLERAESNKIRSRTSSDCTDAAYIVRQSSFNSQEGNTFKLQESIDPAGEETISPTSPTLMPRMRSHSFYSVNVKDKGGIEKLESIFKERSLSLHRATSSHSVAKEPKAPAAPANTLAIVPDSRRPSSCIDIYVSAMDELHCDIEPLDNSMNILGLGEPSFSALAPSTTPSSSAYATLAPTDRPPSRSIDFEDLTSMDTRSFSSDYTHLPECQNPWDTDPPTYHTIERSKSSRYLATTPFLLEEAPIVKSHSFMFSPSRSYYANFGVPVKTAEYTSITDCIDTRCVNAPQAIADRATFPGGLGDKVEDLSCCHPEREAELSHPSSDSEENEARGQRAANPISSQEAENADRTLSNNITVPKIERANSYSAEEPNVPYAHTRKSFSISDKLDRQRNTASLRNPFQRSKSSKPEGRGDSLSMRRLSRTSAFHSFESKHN

Sequence of Gβ1γ2 (P62873 2-340): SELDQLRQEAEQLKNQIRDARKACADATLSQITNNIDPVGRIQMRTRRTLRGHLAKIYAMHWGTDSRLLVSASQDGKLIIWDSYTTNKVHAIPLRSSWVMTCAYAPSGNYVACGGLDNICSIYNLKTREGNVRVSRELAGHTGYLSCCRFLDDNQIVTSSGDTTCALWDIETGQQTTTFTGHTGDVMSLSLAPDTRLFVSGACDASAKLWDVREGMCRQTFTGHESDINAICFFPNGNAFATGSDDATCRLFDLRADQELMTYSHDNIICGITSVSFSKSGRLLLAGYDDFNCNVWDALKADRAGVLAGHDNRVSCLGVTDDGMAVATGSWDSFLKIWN
Sequence of Gβ1γ2 (P59768 2-68, further chain): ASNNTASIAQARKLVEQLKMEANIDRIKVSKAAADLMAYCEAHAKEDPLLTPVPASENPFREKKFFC
Sequence of TRPC5 (Homo sapiens) (Q9UL62 whole entry): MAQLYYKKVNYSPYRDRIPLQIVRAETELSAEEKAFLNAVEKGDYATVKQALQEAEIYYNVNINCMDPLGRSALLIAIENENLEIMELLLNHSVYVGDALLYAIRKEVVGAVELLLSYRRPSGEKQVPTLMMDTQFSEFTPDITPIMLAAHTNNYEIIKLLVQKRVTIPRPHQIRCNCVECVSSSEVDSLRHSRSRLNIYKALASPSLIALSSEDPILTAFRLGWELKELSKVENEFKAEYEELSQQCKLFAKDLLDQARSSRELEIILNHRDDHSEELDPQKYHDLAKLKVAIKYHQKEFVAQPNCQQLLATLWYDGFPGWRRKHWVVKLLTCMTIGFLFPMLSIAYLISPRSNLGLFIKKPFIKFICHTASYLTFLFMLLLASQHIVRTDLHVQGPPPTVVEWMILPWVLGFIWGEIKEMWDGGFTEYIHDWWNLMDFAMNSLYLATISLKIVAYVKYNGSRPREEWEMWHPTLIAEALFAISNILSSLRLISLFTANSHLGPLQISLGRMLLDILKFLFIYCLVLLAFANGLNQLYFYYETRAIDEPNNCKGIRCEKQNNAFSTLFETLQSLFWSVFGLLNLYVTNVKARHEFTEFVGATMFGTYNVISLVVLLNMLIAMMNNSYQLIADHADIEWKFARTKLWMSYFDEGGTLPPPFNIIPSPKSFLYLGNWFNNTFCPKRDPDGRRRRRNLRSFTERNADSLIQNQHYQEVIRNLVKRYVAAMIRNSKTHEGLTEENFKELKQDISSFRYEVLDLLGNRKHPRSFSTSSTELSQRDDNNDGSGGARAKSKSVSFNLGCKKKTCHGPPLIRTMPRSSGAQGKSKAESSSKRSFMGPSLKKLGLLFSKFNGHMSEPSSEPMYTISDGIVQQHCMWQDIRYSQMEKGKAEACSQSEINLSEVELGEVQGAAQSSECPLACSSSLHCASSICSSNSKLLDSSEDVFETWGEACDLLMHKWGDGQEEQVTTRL
Sequence of GIRK2 (Kir3.2), first Gβγ binding (Mus musculus) (P48542 whole entry): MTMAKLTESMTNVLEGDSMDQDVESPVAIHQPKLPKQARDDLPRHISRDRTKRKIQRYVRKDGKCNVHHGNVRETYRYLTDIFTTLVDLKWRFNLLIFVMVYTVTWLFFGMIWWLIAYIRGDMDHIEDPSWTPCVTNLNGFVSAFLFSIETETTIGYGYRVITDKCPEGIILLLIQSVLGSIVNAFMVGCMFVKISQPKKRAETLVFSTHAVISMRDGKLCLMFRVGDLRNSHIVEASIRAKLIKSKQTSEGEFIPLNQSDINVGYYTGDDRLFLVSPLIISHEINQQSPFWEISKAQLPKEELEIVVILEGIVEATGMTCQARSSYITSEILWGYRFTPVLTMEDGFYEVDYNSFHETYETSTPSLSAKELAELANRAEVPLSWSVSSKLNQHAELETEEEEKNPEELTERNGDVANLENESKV
Sequence of GIRK2 (Kir3.2), fourth Gβγ binding (Mus musculus) (P48542 whole entry): as above
Sequence of Gαi3 (P08754 2-354): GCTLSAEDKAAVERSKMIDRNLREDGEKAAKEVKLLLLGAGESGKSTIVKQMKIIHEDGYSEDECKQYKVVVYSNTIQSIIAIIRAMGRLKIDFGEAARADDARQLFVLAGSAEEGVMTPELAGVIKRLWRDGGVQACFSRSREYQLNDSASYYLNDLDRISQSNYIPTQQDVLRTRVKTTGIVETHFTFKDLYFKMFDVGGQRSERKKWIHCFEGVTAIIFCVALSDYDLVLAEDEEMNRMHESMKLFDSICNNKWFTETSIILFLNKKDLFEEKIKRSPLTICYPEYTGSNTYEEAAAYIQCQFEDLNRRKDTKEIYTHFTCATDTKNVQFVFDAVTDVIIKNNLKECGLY

| Substance | Kd (TRPC5 (Homo sapiens)) | Kd [1] | Kd [2] | Kd [3] |
| --- | --- | --- | --- | --- |
| Gαi3 (from UniProt P08754) | 0.91 µM |  |  |  |
| Gβ1γ2 (from UniProt P62873) |  | 50 µM | 1900 µM | 56 µM |
